{"source": "patent US6468567B1", "about": "“Malt beverage having stabilized flavor and methods of production thereof” (Cerveceria Polar, C.A., priority 1997, dated 2002)", "molecules": {"B1": {"name": "Reductase 1: NADPH-dependent oxidoreductase purified from brewer's yeast; first 30 residues show 100% homology to Old Yellow Enzyme isozyme OYE2 (protein, UniProt Q03558 2-400, looked up)", "NADPH dehydrogenase 2": "PFVKDFKPQALGDTNLFKPIKIGNNELLHRAVIPPLTRMRAQHPGNIPNRDWAVEYYAQRAQRPGTLIITEGTFPSPQSGGYDNAPGIWSEEQIKEWTKIFKAIHENKSFAWVQLWVLGWAAFPDTLARDGLRYDSASDNVYMNAEQEEKAKKANNPQHSITKDEIKQYVKEYVQAAKNSIAAGADGVEIHSANGYLLNQFLDPHSNNRTDEYGGSIENRARFTLEVVDAVVDAIGPEKVGLRLSPYGVFNSMSGGAETGIVAQYAYVLGELERRAKAGKRLAFVHLVEPRVTNPFLTEGEGEYNGGSNKFAYSIWKGPIIRAGNFALHPEVVREEVKDPRTLIGYGRFFISNPDLVDRLEKGLPLNKYDRDTFYKMSAEGYIDYPTYEEALKLGWDKN"}}, "key": {"[1]": {"experiment": "Substrate specificity assays of the purified reductase enzymes", "format": "biochemical", "conditions": "FIG. 10", "protocol": "The activities of the isolated and purified oxoaldehyde reductase enzymes were determined in a mixture containing 9 mM methylglyoxal, 0.1 mM NADPH, 25 mM potassium phosphate buffer (pH 7.0), and the fraction enzyme (8 μg approximately) in a total volume of 0.5 ml. The reaction was monitored at 340 nm. All assays were performed at 25° C. One unit of the enzyme was defined as the amount of enzyme that the catalyzes the oxidation of 1 μmol of NADPH per minute at 25° C.\nVarious carbonyl compounds were assayed as substrates for the isolated and purified reductase enzymes."}, "[2]": {"experiment": "Effect of the reductases on the LC18 peak in fresh beer (HPLC)", "format": "biochemical", "conditions": "50 units/ml enzyme, 25° C., 30 minutes, FIG. 11", "protocol": "Analysis of the chemical indices LC18 and 5-HMF was performed by liquid chromatography, using a Waters HPLC system which consisted of a 600 pump, Wisp 717 autosampler, Millennium 2010 Chromatography Manager v 2.1. Separation was carried out in an Aminex HPX-87H column 300×7.8 mm, 9 μm held at 55° C. Elution was monitored with a Waters 991 Photodiode Array Detector (200 nm-300 nm) and the quantitation of 5-HMF and LC18 peak was carried out at 283 nm. For analysis, 50 μl of degassed beer was injected in duplicate samples and eluted with 0.05 M H2SO4 over 25 min at a flow rate of 1.0 ml/min. Quantitation of 5-HMF was performed using an external calibration curve of the respective pure compounds (Sigma; Saint Louis, Mo.).\nIn order to determine the effect of both reductases on the intensity of the LC18 peak, a 1 ml mixture of fresh beer, 25 mM potassium phosphate buffer (pH 7.0), 0.1 mM NADPH and the required volume of enzyme to obtain a final concentration in the solution of 50 units/ml of enzyme was incubated at 25° C. for 30 minutes. After the incubation, the treated beer was analyzed on an Aminex HPX-87H column connected to a Waters HPLC System under the conditions described above."}}, "data": [{"molecule": "B1", "values": [{"measurement": "activity on pyruvate", "setting": "[1]", "result": "neither enzyme showed any appreciable activity"}, {"measurement": "effect on the assayed aldoses (glucose, galactose and xylose)", "setting": "[1]", "result": "little or no effect"}, {"measurement": "metyrapone as substrate", "setting": "[1]", "result": "acceptable substrate"}, {"measurement": "activity on compounds with a single keto or aldo group such as acetaldehyde and pyridine-3-aldehyde", "setting": "[1]; comparison of Reductase 1 with Reductase 2", "result": "higher activity than Reductase 2"}, {"measurement": "activity on 2-oxoaldehydes such as methylglyoxal and 3-deoxyglucosone", "setting": "[1]; substrates methylglyoxal, 3-deoxyglucosone", "result": "acted on"}, {"measurement": "change in the area of the LC18 peak", "setting": "[2]; 0.1 mM NADPH, relative to untreated control beer", "result": "significant decrease"}, {"measurement": "decrease in the LC18 peak compared with Reductase 2", "setting": "[2]", "result": "larger decrease"}]}]}
